Experiments:
[1] = target: T1, HIR extracellular domain (ECD) (human, UniProt P06213 28-956, limits assumed); assay: ELISA on plated HIR ECD; ED50 normalised with a MW of 375 kDa
T1 construct: extracellular domain; also called HIR ECD; IR ECD

[2] = target: T1, HIR extracellular domain (ECD); assay: ELISA, HIR ECD plated on Nunc-Maxisorb wells, biotinylated goat anti-human IgG detection; ED50 by inspection
[3] = target: T1, HIR extracellular domain (ECD); assay: ELISA on HIR ECD; ED50 normalised with a MW of 150 kDa
[4] = target: T1, HIR extracellular domain (ECD); assay: ELISA on lectin affinity purified HIR ECD; printed as ED50, non-linear regression
[5] = target: T1, HIR extracellular domain (ECD); assay: ELISA on plated HIR ECD; ED50 normalised with a MW of 150 kDa
[6] = target: T1, HIR extracellular domain (ECD); assay: ELISA on HIR ECD; ED50 normalised with a MW of 350 kDa
[7] = target: T1, HIR extracellular domain (ECD); assay: ELISA on HIR ECD (FIG. 17); the same 166 ng/mL ED50 normalised with a MW of 375 kDa

Row | Binder | EC50 [1] [nM] | EC50 [2] [µg/mL] | EC50 [3] [nM] | EC50 [4] [µg/mL] | EC50 [5] [nM] | EC50 [6] [nM] | EC50 [7] [nM]
1 | HIRMAb-L-NAGLU fusion protein (23 amino acid L linker) (antibody, human IgG1, human IgG3, kappa, COS-derived (transient expression), purified on protein A. Hetero-tetramer; also called HIR Ab-L-NAGLU fusion protein; IgG-L-NAGLU) heavy: not shown light: DIQMTQSPSSLSASLGERVSLTCRASQDIGGNLYWLQQGPDGTIKRLIYATSSLDSGVPKRFSGSRSGSDYSLTISSLESEDFVDYYCLQYSSSPWTFGGGTKLEIKRTVAAPSVFIFPPSDEQLKSGTASVVCLLNNFYPREAKVQWKVDNALQSGNSQESVTEQDSKDSTYSLSSTLTLSKADYEKHKVYACEVTHQGLSSPVTKSFNRGEC | 0.93 | 0.35 |  |  |  |  | 
2 | chimeric HIRMAb (chimeric monoclonal antibody against the human insulin receptor) (antibody, human IgG1, kappa, also called HIR Ab; HIRMAb alone) heavy: not shown light: DIQMTQSPSSLSASLGERVSLTCRASQDIGGNLYWLQQGPDGTIKRLIYATSSLDSGVPKRFSGSRSGSDYSLTISSLESEDFVDYYCLQYSSSPWTFGGGTKLEIKRTVAAPSVFIFPPSDEQLKSGTASVVCLLNNFYPREAKVQWKVDNALQSGNSQESVTEQDSKDSTYSLSSTLTLSKADYEKHKVYACEVTHQGLSSPVTKSFNRGEC |  | 0.065 | 0.29 | 0.043 | 0.43 |  | 
3 | HIRMAb-LL-NAGLU fusion protein (31 amino acid LL linker) (antibody, human IgG1, human IgG3, kappa, also called HIR Ab HC-LL-NAGLU; printed in places as HIRMAb-NAGLU or HIR Ab-NAGLU fusion protein) heavy: not shown light: DIQMTQSPSSLSASLGERVSLTCRASQDIGGNLYWLQQGPDGTIKRLIYATSSLDSGVPKRFSGSRSGSDYSLTISSLESEDFVDYYCLQYSSSPWTFGGGTKLEIKRTVAAPSVFIFPPSDEQLKSGTASVVCLLNNFYPREAKVQWKVDNALQSGNSQESVTEQDSKDSTYSLSSTLTLSKADYEKHKVYACEVTHQGLSSPVTKSFNRGEC |  |  |  | 0.166 |  | 0.47 | 0.44

Reference: US20240409650A1 (ARMAGEN, published 2024)
